B1: OX40SF2IgG2sigma_R2BS29_HC-C (bispecific antibody)
heavy: QVQLVQSGAEVKKPGSSVKVSCKASGYTFKDYTMHWVRQAPGQGLEWIGGIYPNNGGSTYNQNFKDRVTLTADKSTSTAYMELSSLRSEDTAVYYCARMGYHGPHLDFDVWGQGTTVTVSSASTKGPSVFPLAPCSRSTSESTAALGCLVKDYFPEPVTVSWNSGALTSGVHTFPAVLQSSGLYSLSSVVTVPSSNFGTQTYTCNVDHKPSNTKVDKTVERKCCVECPPCPAPPAAASSVFLFPPKPKDTLMISRTPEVTCVVVDVSAEDPEVQFNWYVDGVEVHNAKTKPREEQFNSTFRVVSVLTVLHQDWLNGKEYKCKVSNKGLPSSIEKTISKTKGQPREPQVYTLPPSREEMTKNQVSLTCLVKGFYPSDIAVEWESNGQPENNYKTTPPMLDSDGSFFLYSKLTVDKSRWQQGNVFSCSVMHEALHNHYTQKSLSLSPGKGGGGGSGGGGSGGGGSGGGGSLPAPKNLVVSRVTEDSARLSWTAPDAAFDSFPIYYWEYRVGGEAIVLTVPGSERSYDLTGLKPGTEYFVYINGVKGGEESRPLSAIFTT
light: DIQMTQSPSSLSASVGDRVTITCKASQDVGAAVAWYQQKPGKAPKLLIYWASTRHTGVPSRFSGSGSGTDFTLTISSLQPEDFATYYCQQYINYPLTFGGGTKVEIKRTVAAPSVFIFPPSDEQLKSGTASVVCLLNNFYPREAKVQWKVDNALQSGNSQESVTEQDSKDSTYSLSSTLTLSKADYEKHKVYACEVTHQGLSSPVTKSFNRGEC
notes: mAbtyrin: anti-OX40 antibody OX40SF2, effector silent IgG2sigma, with linker and R2BS29 FN3 domain at the C-terminus of the heavy chain; also called mAbtyrin
B2: OX40SF2IgG2sigma (antibody)
heavy: QVQLVQSGAEVKKPGSSVKVSCKASGYTFKDYTMHWVRQAPGQGLEWIGGIYPNNGGSTYNQNFKDRVTLTADKSTSTAYMELSSLRSEDTAVYYCARMGYHGPHLDFDVWGQGTTVTVSSASTKGPSVFPLAPCSRSTSESTAALGCLVKDYFPEPVTVSWNSGALTSGVHTFPAVLQSSGLYSLSSVVTVPSSNFGTQTYTCNVDHKPSNTKVDKTVERKCCVECPPCPAPPAAASSVFLFPPKPKDTLMISRTPEVTCVVVDVSAEDPEVQFNWYVDGVEVHNAKTKPREEQFNSTFRVVSVLTVLHQDWLNGKEYKCKVSNKGLPSSIEKTISKTKGQPREPQVYTLPPSREEMTKNQVSLTCLVKGFYPSDIAVEWESNGQPENNYKTTPPMLDSDGSFFLYSKLTVDKSRWQQGNVFSCSVMHEALHNHYTQKSLSLSPGK
light: B1 light
notes: Anti-OX40 antibody, IgG2 sigma isotype (effector silent Fc: V234A, G237A, P238S, H268A, V309L, A330S, P331S against wild type IgG2); control without FN3 domain; also called parental antibody; parental OX40 antibody
B3: OX40SF2IgG1 (antibody)
heavy: not shown
light: B1 light
notes: Anti-OX40 antibody, wild-type IgG1; control without FN3 domain

Key:
[1] = target: T1, human FcγRIIB (NM_004001) expressed on cells (human, UniProt P31994 43-310); test: cell-based or functional assay
T1 sequence: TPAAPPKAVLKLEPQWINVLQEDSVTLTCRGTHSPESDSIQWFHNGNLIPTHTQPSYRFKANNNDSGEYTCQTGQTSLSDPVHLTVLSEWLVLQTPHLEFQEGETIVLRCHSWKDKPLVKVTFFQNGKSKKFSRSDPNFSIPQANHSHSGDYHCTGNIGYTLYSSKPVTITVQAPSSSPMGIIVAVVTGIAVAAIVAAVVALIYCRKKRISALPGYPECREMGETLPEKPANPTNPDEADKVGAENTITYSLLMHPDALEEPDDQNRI

[2] = target: T2, human FcγRIIA (NM_021642) expressed on cells (human, UniProt P12318 36-317); test: cell-based or functional assay
T2 sequence: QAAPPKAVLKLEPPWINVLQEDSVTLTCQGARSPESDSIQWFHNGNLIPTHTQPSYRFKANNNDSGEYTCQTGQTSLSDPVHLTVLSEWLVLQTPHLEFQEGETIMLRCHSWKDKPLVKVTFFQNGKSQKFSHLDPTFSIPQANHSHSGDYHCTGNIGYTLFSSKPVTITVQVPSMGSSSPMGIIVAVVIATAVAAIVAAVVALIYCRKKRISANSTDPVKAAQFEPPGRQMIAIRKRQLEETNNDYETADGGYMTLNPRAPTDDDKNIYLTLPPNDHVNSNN

[3] = target: T3, human FcγRIIIA (NM_000569) expressed on cells (human, UniProt P08637 17-254); test: cell-based or functional assay
FcγRIIA protein = target: T4, FcγRIIA protein (human, UniProt P12318 36-217, biotinylated (SureLINK Biotin Kit) in the ELISA of Example 1); test: cell-based or functional assay
T4 sequence: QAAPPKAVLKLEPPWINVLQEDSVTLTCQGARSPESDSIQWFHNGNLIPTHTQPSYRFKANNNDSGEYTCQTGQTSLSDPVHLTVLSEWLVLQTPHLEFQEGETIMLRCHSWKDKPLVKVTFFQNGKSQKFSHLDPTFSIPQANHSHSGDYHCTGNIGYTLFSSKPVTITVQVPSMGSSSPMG

FcγRIIB protein = target: T5, FcγRIIB protein (human, UniProt P31994 43-217, biotinylated (SureLINK Biotin Kit) in the ELISA of Example 1); test: cell-based or functional assay
T5 sequence: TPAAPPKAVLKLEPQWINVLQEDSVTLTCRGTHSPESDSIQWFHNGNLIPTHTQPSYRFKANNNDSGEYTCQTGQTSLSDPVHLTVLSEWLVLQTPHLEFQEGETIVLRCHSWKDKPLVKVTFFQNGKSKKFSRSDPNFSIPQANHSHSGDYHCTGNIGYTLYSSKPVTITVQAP

[4] = target: T6, human OX40 expressed on HEK-Blue: OX40 cells (human, UniProt P43489 29-277); test: flow cytometry; HEK-Blue: OX40 cells
T6 construct: also called CD134
T6 sequence: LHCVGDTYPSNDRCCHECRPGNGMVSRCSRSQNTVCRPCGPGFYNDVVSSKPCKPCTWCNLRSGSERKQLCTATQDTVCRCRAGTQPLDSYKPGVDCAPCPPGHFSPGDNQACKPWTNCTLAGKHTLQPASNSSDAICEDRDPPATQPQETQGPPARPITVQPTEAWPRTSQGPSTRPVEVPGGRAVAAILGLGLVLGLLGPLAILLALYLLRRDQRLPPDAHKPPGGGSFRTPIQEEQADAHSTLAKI
How it was run: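 HEK-Blue Null 1 cells stably transfected with human OX40 were blocked, then incubated with mAbtyrin for 1.5 h at 4 °C. Binding was detected with a PE anti-human IgG F(ab′)₂ secondary, gating on DRAQ7-excluding live cells and taking geometric mean fluorescence. EC50 came from nonlinear regression versus log antibody concentration.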

[5] = target: T3, human FcγRIIIA (NM_000569) expressed on …; test: flow cytometry; Expi293F cells transfected with FcγRIIIA
Description: Plasmids expressing cDNAs encoding human FcγRI (NM_000566) (SEQ ID NO: 44), FcγRIIA (NM_021642) (SEQ ID NO: 2), FcγRIIB (NM_004001) (SEQ ID NO: 3), and FcγRIIIA (NM_000569) (SEQ ID NO: 45) (Origene) were transiently transfected into Expi293F cells by ExpiFectamine293 transfection kit (Life Technologies). Flow cytometry assays were performed 48 h after transfection.
(§1) 2×10⁵ cells per well were seeded in 96-well plate and blocked in BSA Stain Buffer (BD Biosciences, San Jose, USA) for 30 min at 4° C. Cells were incubated with test mAbtyrin on ice for 1.5 h at 4° C. After being washed twice with BSA stain buffer, the cells were incubated with R-PE labeled anti-human or anti-mouse IgG secondary antibody (Jackson Immunoresearch Laboratories) for 45 min at 4° C. The cells were washed twice in stain buffer and then resuspended in 150 μL of Stain Buffer containing 1:200 diluted DRAQ7 live/dead stain (Cell Signaling Technology, Danvers, USA). PE and DRAQ7 signals of the stained cells were detected by Miltenyi MACSQuant flow cytometer (Miltenyi Biotec, Auburn, USA) using B2 and B4 channel respectively. Live cells were gated on DRAQ7 exclusion and the geometric mean fluorescence signals were determined for at least 10,000 live events collected. FlowJo software (Tree Star) was used for analysis. Data was plotted as the logarithm of antibody concentration versus mean fluorescence signals. Nonlinear regression analysis was performed by GraphPad Prism 6 (GraphPad Software, Inc.) and EC₅₀ values were calculated.

[6] = target: T1, human FcγRIIB (NM_004001) expressed on …; test: flow cytometry; Raji cells (express predominantly FcγRIIB)
Description: as §1
Raji cell is a cell line derived from B cells that express predominantly FcγRIIB. The binding of mAbtyrins on Raji cells were investigated by flow cytometry assay described for testing mAbtyrin binding to FcγR. Binding of the mAbtyrins were detected by flow cytometry using a PE-labeled Goat F(ab′) against Human IgG(γ).

T3 sequence (P08637 17-254 limits assumed): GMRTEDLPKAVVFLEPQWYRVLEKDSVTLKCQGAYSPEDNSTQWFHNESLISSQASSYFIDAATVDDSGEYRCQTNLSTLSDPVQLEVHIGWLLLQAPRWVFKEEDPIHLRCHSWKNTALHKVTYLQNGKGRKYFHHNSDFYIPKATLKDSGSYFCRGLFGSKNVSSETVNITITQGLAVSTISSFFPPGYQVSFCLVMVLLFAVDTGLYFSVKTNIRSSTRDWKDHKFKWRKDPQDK

| Binder | % activity at 1 µg/ml with Raji cells (HEK-Blue: OX40 NF-κB reporter) [1] [%] | ADCP EC50 [2] [ng/mL] | ADCC (fold activation) at 1 µg/ml [3] [fold] | IFNγ production by activated CD4 T cells, plate-coated FcγRIIA (FcγRIIA protein) [pg/mL] | TNFα production by activated CD4 T cells, plate-coated FcγRIIA (FcγRIIA protein) [pg/mL] | IFNγ production by activated CD4 T cells, plate-coated FcγRIIb (FcγRIIB protein) [pg/mL] | TNFα production by activated CD4 T cells, plate-coated FcγRIIb (FcγRIIB protein) [pg/mL] | Binding to HEK-Blue: OX40 cells (mean signal at 1 µg/ml) [4] [mean fluorescence signal] | EC50 [4] [µg/mL] | EC50 [5] [µg/mL] | Binding to Raji cells mean signals at 10 µg/ml [6] [mean fluorescence signal] | EC50 [6] [µg/mL] |
| --- | --- | --- | --- | --- | --- | --- | --- | --- | --- | --- | --- | --- |
| B1 | 93 | 37.5 | 1 | 1550 | 226 | 1330 | 250 | 9180 | 0.548 | > 10 | 11900 | 1.44 |
| B2 | 2 | > 1000 | 1 | 97 | 28 | 70 | 30 | 13900 | 0.166 | – | 330 | > 10 |
| B3 | 9 | 39.3 | 9 | 92 | 28 | 70 | 30 | – | 0.229 | 0.339 | – | – |

From patent US20190062420A1 (Janssen / Centocor, published 2019)
